Among the data in patent US20250295731A1 are concentration giving complete inhibition of cell adhesion and IC50 values, retold here.

Test [1] concerns the target α9β1 integrin (UniProt Q13797). The test can be described thus: inhibition of α9LN18 cell adhesion to immobilized recombinant VCAM-1.
Test [2] addresses α9β1 integrin (UniProt Q13797). The test can be described thus: inhibition of α9LN18 cell adhesion to immobilized F9 fraction.
The target in test [3] is α9β1 integrin (UniProt Q13797). Description: inhibition of α9+ cell adhesion to immobilized Fraction 9-4.
The target of test [4] is α9β1 integrin (UniProt Q13797). Description: inhibition of α9+ cell adhesion to immobilized VCAM-1.

The IC50 is the concentration that inhibits the measured activity by half.

Chain of UniProt Q13797 (Q13797 30-1035, chain 1 of 2): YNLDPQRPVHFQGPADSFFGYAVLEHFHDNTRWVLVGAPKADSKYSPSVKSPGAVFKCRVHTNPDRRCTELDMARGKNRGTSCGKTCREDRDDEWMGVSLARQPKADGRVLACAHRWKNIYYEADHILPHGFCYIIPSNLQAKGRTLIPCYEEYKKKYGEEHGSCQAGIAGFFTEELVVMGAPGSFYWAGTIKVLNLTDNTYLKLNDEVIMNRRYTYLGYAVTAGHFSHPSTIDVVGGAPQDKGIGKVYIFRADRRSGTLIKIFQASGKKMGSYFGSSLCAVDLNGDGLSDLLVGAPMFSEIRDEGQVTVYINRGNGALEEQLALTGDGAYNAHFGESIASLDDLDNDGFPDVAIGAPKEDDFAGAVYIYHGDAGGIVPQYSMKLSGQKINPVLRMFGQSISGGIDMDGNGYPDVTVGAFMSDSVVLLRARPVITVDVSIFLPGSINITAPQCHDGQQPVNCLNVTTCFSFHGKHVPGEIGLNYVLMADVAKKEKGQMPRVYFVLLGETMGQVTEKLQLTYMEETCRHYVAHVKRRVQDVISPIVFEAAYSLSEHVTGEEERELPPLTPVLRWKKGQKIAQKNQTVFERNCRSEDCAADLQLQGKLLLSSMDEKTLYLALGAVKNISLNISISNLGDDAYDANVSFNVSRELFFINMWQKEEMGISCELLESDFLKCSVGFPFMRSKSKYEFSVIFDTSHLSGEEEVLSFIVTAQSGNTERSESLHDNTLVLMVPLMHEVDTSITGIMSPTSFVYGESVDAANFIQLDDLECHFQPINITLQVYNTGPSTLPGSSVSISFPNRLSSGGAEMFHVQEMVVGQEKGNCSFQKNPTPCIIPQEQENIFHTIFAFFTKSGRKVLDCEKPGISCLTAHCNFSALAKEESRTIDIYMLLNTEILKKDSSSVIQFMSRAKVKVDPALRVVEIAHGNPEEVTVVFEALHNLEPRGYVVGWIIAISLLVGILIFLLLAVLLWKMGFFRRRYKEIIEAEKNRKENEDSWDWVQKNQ
Chain of UniProt Q13797 (P05556 21-798, chain 2 of 2, further chain): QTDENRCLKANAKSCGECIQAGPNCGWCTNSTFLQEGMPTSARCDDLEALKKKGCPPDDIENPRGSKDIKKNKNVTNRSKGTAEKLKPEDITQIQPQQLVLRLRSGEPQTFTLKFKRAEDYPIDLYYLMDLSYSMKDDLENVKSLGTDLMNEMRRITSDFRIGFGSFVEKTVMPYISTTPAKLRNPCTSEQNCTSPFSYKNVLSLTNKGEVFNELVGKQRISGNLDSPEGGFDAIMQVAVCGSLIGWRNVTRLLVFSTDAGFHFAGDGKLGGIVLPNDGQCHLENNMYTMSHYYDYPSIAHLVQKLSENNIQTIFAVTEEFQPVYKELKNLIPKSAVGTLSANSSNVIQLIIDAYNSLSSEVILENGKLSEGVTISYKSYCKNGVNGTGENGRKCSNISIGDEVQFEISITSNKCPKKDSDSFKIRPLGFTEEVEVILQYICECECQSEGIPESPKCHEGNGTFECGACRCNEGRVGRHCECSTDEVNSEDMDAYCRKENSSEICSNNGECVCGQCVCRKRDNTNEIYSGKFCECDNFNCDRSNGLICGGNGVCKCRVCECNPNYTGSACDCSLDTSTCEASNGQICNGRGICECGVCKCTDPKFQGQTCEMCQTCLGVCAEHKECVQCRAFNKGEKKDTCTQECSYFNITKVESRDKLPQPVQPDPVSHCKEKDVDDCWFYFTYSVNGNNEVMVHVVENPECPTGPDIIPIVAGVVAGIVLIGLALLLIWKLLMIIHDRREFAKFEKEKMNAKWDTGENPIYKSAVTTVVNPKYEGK
Chain of VLO5, snake venom MLD-disintegrin (P0C6A9 whole entry): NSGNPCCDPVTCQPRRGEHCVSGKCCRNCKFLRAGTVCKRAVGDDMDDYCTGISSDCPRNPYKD
Chain of VLO5, snake venom MLD-disintegrin (P0C6B0 whole entry, further chain): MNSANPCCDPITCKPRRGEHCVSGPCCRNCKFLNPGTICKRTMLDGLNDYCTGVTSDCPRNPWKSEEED

For CS-1 peptide EILDVPST, the concentration giving complete inhibition of cell adhesion with α9β1 integrin [1] and with α9β1 integrin [2] was 500 µM in each case.
Consider VLO5, snake venom MLD-disintegrin, for which the results for the IC50 in the test with α9β1 integrin [3] and with α9β1 integrin [4] were 5.6 nM and 3.2 nM, respectively.
